The results in this text go back to US20250121075A1, “ALPHA-FETOPROTEIN BIOCONJUGATES FOR DISEASE TREATMENT” (priority 2021, published 2025).

For orientation: IC50 means the point on the concentration scale where inhibition reaches its midpoint. High values mean weaker potency, low ones greater potency.

For experiment [1], the target named is alpha-fetoprotein (AFP) receptor (AFPR) (human). The experiment in a line: AF-647 labeled rhAFP incubated with H522 cells at 37 C for 0.5, 2 and 5 h, plate reader fluorescence.
Experiment [2] shares this target. As to the kind of experiment: AF-647 labeled rhAFP incubated with MCF7 cells at 37 C for 0.5, 2 and 5 h, plate reader fluorescence.
Experiment [3] has the same target. The experiment in a line: AF-647 labeled rhAFP incubated with U-937 cells at 37 C for 0.5, 2 and 5 h, plate reader fluorescence.
Experiment [4] has the same target. The experiment in a line: AF-647 labeled rhAFP incubated with MOLT-4 cells at 37 C for 0.5, 2 and 5 h, plate reader fluorescence.
Experiment [5] shares this target. The experiment in a line: AF-647 labeled rhAFP incubated with SKOV-3 cells at 37 C for 0.5, 2 and 5 h, plate reader fluorescence.
The target is the same in experiment [6]. The experiment in a line: AF-647 labeled rhAFP incubated with OVCAR-3 cells at 37 C for 0.5, 2 and 5 h, plate reader fluorescence.
For experiment [7] the target is unchanged. As to the kind of experiment: AF-647 labeled rhAFP incubated with COLO 205 cells at 37 C for 0.5, 2 and 5 h, plate reader fluorescence.
The subject of experiment [8] is MCF-7. The experiment in a line: Cytotoxicity of bioconjugates of varying DPR (Series 1). The class given is cell-based, human. As to the method: (§1) A series of bioconjugates containing DM1, DM3, DM4 or ABZ981 synthesized under varying reaction conditions, resulting in different average DPRs. The cytotoxicity of these bioconjugates were evaluated in vitro in a panel of tumor cell lines (leukemia, breast, colorectal, ovarian and lung).

In experiment [9] the test system is U937. The description is as above. The class given is cell-based, human. The settings on record: Series 1 bioconjugates. As for the experimental part:
as §1

For experiment [10], the system named is COLO-205. As to the kind of experiment: Cytotoxicity of bioconjugates of varying DPR (Series 2). The class given is cell-based, human. The settings on record: Series 2 bioconjugates. As for the experimental part:
as §1

Experiment [11] has as its system NCl-H522. Described as above. The class given is cell-based, human. Conditions: Series 2 bioconjugates. As to the method:
as §1

Experiment [12] relates to OV AR3. Described as above. The class given is cell-based, human. The settings on record: Series 2 bioconjugates. As to the method:
as §1

In experiment [13] the test system is SKOV-3. The description is as above. It is filed as cell-based, human. Conditions: Series 2 bioconjugates. As for the experimental part: as §1
Experiment [14] deals with COLO 205. As to the kind of experiment: Binding of AF-647 labeled rhAFP (ACT-101) to tumor cells. On the set-up: species or system human. Conditions: COLO 205, metastatic colorectal adenocarcinoma. As for the experimental part: (§2) Prior to testing lead compounds in vitro, the expression of the AFP receptor and ability of cells to bind and take up fluorescently-labelled rhAFP was established in the U937 cell line as well as other cell lines, as in the study summarized in Table 1 below. In this study, rhAFP was labeled using the procedures described in the product protocol from commercially available Alexa Fluor-647 (AF-647) protein labeling kits. Binding experiments were performed in 96-well plates and fluorescence was measured using a plate reader. Tumor cells were cultured in suspension or plated in cell culture media. Each tumor cell line was incubated with AF-647 labeled rhAFP at 37° C. for 0.5, 2 and 5 hours (n=3 replicates). Incubation was stopped by chilling on ice. For cells in suspension, cells and culture medium were collected separately by centrifugation and subjected to repeat wash steps. For plated cells, trypsin/EDTA was used for cell detachment.

The test system of experiment [15] is H522. The description is as above. On the set-up: species or system human. Conditions: H522, non-small cell lung adenocarcinoma. As for the experimental part:
as §2

Experiment [16] relates to MCF7. The experiment is described as above. Further details: species or system human. Conditions: MCF7, breast adenocarcinoma. As for the experimental part:
as §2

Experiment [17] relates to MOLT-4. The description is as above. On the set-up: species or system human. The settings on record: MOLT-4, acute lymphoblastic leukemia. As to the method:
as §2

Experiment [18] has as its system OVCAR-3. The description is as above. The settings on record: OVCAR-3, ovary adenocarcinoma; 37° C., 0.5, 2 and 5 hours. Further details: species or system human. As to the method:
as §2

Experiment [19] concerns SKOV-3. The experiment is described as above. Further details: species or system human. The settings on record: SKOV-3, ovary adenocarcinoma. As to the method:
as §2

In experiment [20] the test system is U-937. Described as above. On the set-up: species or system human. Conditions: U-937, histiocytic lymphoma. As to the method:
as §2

The subject of experiment [21] is ovarian cancer organoids. The experiment in a line: Ovarian cancer organoids from two patients. The class given is cell-based.

B1: Mature [Asn233Gln]rhAFP(1-591), lacking glycosylation, produced in transgenic goats (ACT-101) (ligand)
chain: RTLHRNEYGIASILDSYQCTAEISLADLATIFFAQFVQEATYKEVSKMVKDALTAIEKPTGDEQSSGCLENQLPAFLEELCHEKEILEKYGHSDCCSQSEEGRHNCFLAHKKPTPASIPLFQVPEPVTSCEAYEEDRETFMNKFIYEIARRHPFLYAPTILLWAARYDKIIPSCCKAENAVECFQTKAATVTKELRESSLLNQHACAVMKNFGTRTFQAITVTKLSQKFTKVQFTEIQKLVLDVAHVHEHCCRGDVLDCLQDGEKIMSYICSQQDTLSNKITECCKLTTLERGQCIIHAENDEKPEGLSPNLNRFLGDRDFNQFSSGEKNIFLASFVHEYSRRHPQLAVSVILRVAKGYQELLEKCFQTENPLECQDKGEEELQKYIQESQALAKRSCGLFQKLGEYYLQNAFLVAYTKKAPQLTSSELMAITRKMAATAATCCQLSEDKLLACGEGAADIIIGHLCIRHEMTPVNPGVGQCCTSSYANRRPCFSSLVVDETYVPPAFSDDKFIFHKDLCQAQGVALQTMKQEFLINLVKQKPQITEEQLEAVIADFSGLLEKCCQGQEQEVCFAEEGQKLISKTRAALGV
modifications: fluorescent label, site not stated: Alexa Fluor-647 (Table 1), AlexaFluor488 (FIG. 1 competition), Alexa Fluor-488 or FITC (other studies)
In the case of B1, the Highest AFP binding over 5 h Period (ng/million cells) turned out to be 71.1 in [1]; 126 in experiment [2]; 84.3 in experiment [3]; 19 in experiment [4]; 31.3 in [5]; 71 in [6]. The molecule also had a Highest AFP binding over 5 h Period (ng/million cells) in experiment [7] of 75.

B2: HM023-2: Series 1 AFP bioconjugate, toxin printed DME (DM3), DPR 4.8 (conjugate, UniProt P02771 19-609, looked up)
Alpha-fetoprotein: RTLHRNEYGIASILDSYQCTAEISLADLATIFFAQFVQEATYKEVSKMVKDALTAIEKPTGDEQSSGCLENQLPAFLEELCHEKEILEKYGHSDCCSQSEEGRHNCFLAHKKPTPASIPLFQVPEPVTSCEAYEEDRETFMNKFIYEIARRHPFLYAPTILLWAARYDKIIPSCCKAENAVECFQTKAATVTKELRESSLLNQHACAVMKNFGTRTFQAITVTKLSQKFTKVNFTEIQKLVLDVAHVHEHCCRGDVLDCLQDGEKIMSYICSQQDTLSNKITECCKLTTLERGQCIIHAENDEKPEGLSPNLNRFLGDRDFNQFSSGEKNIFLASFVHEYSRRHPQLAVSVILRVAKGYQELLEKCFQTENPLECQDKGEEELQKYIQESQALAKRSCGLFQKLGEYYLQNAFLVAYTKKAPQLTSSELMAITRKMAATAATCCQLSEDKLLACGEGAADIIIGHLCIRHEMTPVNPGVGQCCTSSYANRRPCFSSLVVDETYVPPAFSDDKFIFHKDLCQAQGVALQTMKQEFLINLVKQKPQITEEQLEAVIADFSGLLEKCCQGQEQEVCFAEEGQKLISKTRAALGV
modifications: DM3 maytansinoid toxin conjugate, DPR 4.8
As for B2, in experiment [8] (MCF-7, Series 1), the “potency lower than ABZ981 and DM4 conjugates” value was “approximately 3 fold”. Besides, the IC50 in [8] (Series 1 bioconjugates) is 4.62 nM; in experiment [9], 1.6 nM.

B3: AH00-3D: Series 2 AFP bioconjugate, toxin printed DME (DM3), DPR 4 (conjugate, UniProt P02771 19-609, looked up)
Alpha-fetoprotein: RTLHRNEYGIASILDSYQCTAEISLADLATIFFAQFVQEATYKEVSKMVKDALTAIEKPTGDEQSSGCLENQLPAFLEELCHEKEILEKYGHSDCCSQSEEGRHNCFLAHKKPTPASIPLFQVPEPVTSCEAYEEDRETFMNKFIYEIARRHPFLYAPTILLWAARYDKIIPSCCKAENAVECFQTKAATVTKELRESSLLNQHACAVMKNFGTRTFQAITVTKLSQKFTKVNFTEIQKLVLDVAHVHEHCCRGDVLDCLQDGEKIMSYICSQQDTLSNKITECCKLTTLERGQCIIHAENDEKPEGLSPNLNRFLGDRDFNQFSSGEKNIFLASFVHEYSRRHPQLAVSVILRVAKGYQELLEKCFQTENPLECQDKGEEELQKYIQESQALAKRSCGLFQKLGEYYLQNAFLVAYTKKAPQLTSSELMAITRKMAATAATCCQLSEDKLLACGEGAADIIIGHLCIRHEMTPVNPGVGQCCTSSYANRRPCFSSLVVDETYVPPAFSDDKFIFHKDLCQAQGVALQTMKQEFLINLVKQKPQITEEQLEAVIADFSGLLEKCCQGQEQEVCFAEEGQKLISKTRAALGV
modifications: DM3 maytansinoid toxin conjugate, DPR 4
For B3, the IC50 in [10] was 10.7 nM; in experiment [11] it was 21.9 nM; in experiment [12], 5.47 nM; in [13], 22.8 nM.

B4: ACT-101 (protein)
chain: RTLHRNEYGIASILDSYQCTAEISLADLATIFFAQFVQEATYKEVSKMVKDALTAIEKPTGDEQSSGCLENQLPAFLEELCHEKEILEKYGHSDCCSQSEEGRHNCFLAHKKPTPASIPLFQVPEPVTSCEAYEEDRETFMNKFIYEIARRHPFLYAPTILLWAARYDKIIPSCCKAENAVECFQTKAATVTKELRESSLLNQHACAVMKNFGTRTFQAITVTKLSQKFTKVQFTEIQKLVLDVAHVHEHCCRGDVLDCLQDGEKIMSYICSQQDTLSNKITECCKLTTLERGQCIIHAENDEKPEGLSPNLNRFLGDRDFNQFSSGEKNIFLASFVHEYSRRHPQLAVSVILRVAKGYQELLEKCFQTENPLECQDKGEEELQKYIQESQALAKRSCGLFQKLGEYYLQNAFLVAYTKKAPQLTSSELMAITRKMAATAATCCQLSEDKLLACGEGAADIIIGHLCIRHEMTPVNPGVGQCCTSSYANRRPCFSSLVVDETYVPPAFSDDKFIFHKDLCQAQGVALQTMKQEFLINLVKQKPQITEEQLEAVIADFSGLLEKCCQGQEQEVCFAEEGQKLISKTRAALGV
Turning to B4, the “Highest AFP binding over 5 h Period” value in experiment [14] is 75.0 ng/million cells; in experiment [15], 71.1 ng/million cells; in experiment [16], 126 ng/million cells; in experiment [17], 19.0 ng/million cells; in experiment [18], 71.0 ng/million cells; in experiment [19], 31.3 ng/million cells. The “Highest AFP binding over 5 h Period” value in experiment [20] turned out to be 84.3 ng/million cells. For the same molecule, the “binding and uptake of fluorescently labeled protein by organoids” value in experiment [21] is “bound to and was rapidly taken up”. Further, in experiment [21] (by 72 hr, even at low concentrations), the “apoptosis, AnnexinV staining” value is “innocuous to the cells”.
